Reference: patent WO2005092925A2

Columns and labels:
Experiment in all cases: AlphaScreen
human FcγRIIb (human) = human FcγRIIb (human) (UniProt P31994)
[1] = molecular target: human FcγRIIa H131 (human) (UniProt P12318)
human FcγRIIc (human) = human FcγRIIc (human) (UniProt P31995)
human FcγRI (human) = human FcγRI (human) (UniProt P12314)
human FcRn (human) = human FcRn (human) (UniProt P55899)
[2] = molecular target: human V158 FcγRIIIa, extracellular region fused with GST (human) (UniProt P08637)
UniProt P08637, sequence (P08637 17-208 F176V): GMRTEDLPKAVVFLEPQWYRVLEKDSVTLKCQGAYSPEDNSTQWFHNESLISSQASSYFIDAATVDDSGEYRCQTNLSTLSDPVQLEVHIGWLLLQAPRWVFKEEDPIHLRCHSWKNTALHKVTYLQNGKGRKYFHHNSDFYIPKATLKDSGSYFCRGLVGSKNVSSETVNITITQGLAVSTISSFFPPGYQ

UniProt P12314, sequence (P12314 16-288 limits assumed): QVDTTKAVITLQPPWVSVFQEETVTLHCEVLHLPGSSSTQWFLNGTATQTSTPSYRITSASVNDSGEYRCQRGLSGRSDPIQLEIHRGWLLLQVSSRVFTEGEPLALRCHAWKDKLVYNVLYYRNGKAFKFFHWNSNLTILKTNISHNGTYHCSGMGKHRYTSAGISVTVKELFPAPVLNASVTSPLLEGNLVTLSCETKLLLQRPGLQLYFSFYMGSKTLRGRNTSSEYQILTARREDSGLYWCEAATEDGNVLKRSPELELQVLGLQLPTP
UniProt P31995, sequence (P31995 43-217 limits assumed): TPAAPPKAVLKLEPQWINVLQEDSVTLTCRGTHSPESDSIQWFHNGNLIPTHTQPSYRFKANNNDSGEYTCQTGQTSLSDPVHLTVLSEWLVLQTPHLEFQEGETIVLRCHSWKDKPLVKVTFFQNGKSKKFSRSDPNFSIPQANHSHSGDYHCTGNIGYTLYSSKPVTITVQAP
UniProt P31994, sequence (P31994 43-217 limits assumed): as the sequence (P31995 43-217 limits assumed) above
UniProt P12318, sequence (P12318 36-218 limits assumed): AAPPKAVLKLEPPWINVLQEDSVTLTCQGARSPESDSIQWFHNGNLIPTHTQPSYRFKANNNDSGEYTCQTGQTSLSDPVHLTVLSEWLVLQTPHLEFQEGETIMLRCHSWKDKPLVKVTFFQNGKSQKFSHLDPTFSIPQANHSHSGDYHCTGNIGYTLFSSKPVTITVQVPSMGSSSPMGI
UniProt P55899, sequence (P55899 24-297 limits assumed): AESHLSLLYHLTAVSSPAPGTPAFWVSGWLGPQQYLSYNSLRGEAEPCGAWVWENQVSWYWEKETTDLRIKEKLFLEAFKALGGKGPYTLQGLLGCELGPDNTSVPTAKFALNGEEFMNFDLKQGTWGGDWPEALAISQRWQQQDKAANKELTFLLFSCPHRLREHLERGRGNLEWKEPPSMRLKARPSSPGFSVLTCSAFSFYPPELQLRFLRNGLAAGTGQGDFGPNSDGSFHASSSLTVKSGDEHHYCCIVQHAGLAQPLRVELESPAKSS

Substance	Fold WT (human FcγRIIb (human))	Fold WT [1]	Fold WT (human FcγRIIc (human))	Fold WT (human FcγRI (human))	Fold WT (human FcRn (human))	Fold WT [2]
Campath A231K (antibody)	0.41 fold	0.62 fold	0.58 fold	0.5 fold	0.52 fold	0.58 fold
Campath D221K (antibody)	3.5 fold	4.32 fold	17.8 fold	4.53 fold	5.66 fold	65.6 fold
Campath E233A (antibody)	0.6 fold	1.23 fold	0.71 fold	0.1 fold	0.93 fold	0.46 fold
Campath E233F (antibody)	0.73 fold	0.64 fold	0.84 fold	0.23 fold	0.9 fold	0.58 fold
Campath E233G (antibody)	0.94 fold	1.21 fold	0.74 fold	0.36 fold	2.09 fold	1.21 fold
Campath E233H (antibody)	0.58 fold	0.74 fold	0.78 fold	0.17 fold	0.99 fold	0.32 fold
Campath E233I (antibody)	1.69 fold	1.09 fold	1.8 fold	0.3 fold	0.95 fold	0.88 fold
Campath E233L (antibody)	0.26 fold	0.55 fold	0.54 fold	0.53 fold	0.6 fold	0.52 fold
Campath E233M (antibody)	0.49 fold	0.67 fold	0.85 fold	0.29 fold	1.13 fold	0.7 fold
Campath E233N (antibody)	0.34 fold	0.5 fold	0.46 fold	0.16 fold	0.74 fold	0.48 fold
Campath E233Q (antibody)	0.27 fold	0.52 fold	0.39 fold	0.19 fold	0.61 fold	0.51 fold
Campath E233R (antibody)	0.36 fold	0.75 fold	0.6 fold	0.14 fold	1.05 fold	0.35 fold
Campath E233S (antibody)	0.31 fold	0.62 fold	0.37 fold	0.17 fold	1.1 fold	0.36 fold
Campath E233T (antibody)	0.78 fold	1.28 fold	0.83 fold	0.15 fold	1.19 fold	0.42 fold
Campath E233V (antibody)	0.37 fold	0.71 fold	0.61 fold	0.25 fold	0.91 fold	0.5 fold
Campath E233W (antibody)	0.82 fold	0.86 fold	0.7 fold	0.28 fold	1.64 fold	0.35 fold
Campath G236A (antibody)	1.05 fold	45 fold	1.45 fold	0.48 fold	1.75 fold	0.65 fold
Campath G236D (antibody)	3.77 fold	5.01 fold	4.74 fold	0.15 fold	1.53 fold	
Campath G236M (antibody)	0.79 fold	0.34 fold	0.4 fold		1.6 fold	0.19 fold
Campath G236P (antibody)	0.24 fold	0.11 fold	0.15 fold	0.15 fold	1.41 fold	0.1 fold
Campath G236S (antibody)	2.77 fold	22.7 fold	3.68 fold	0.55 fold	1.77 fold	5.77 fold
Campath G236T (antibody)	0.95 fold	1.89 fold	0.48 fold		1.56 fold	
Campath G236V (antibody)	0.82 fold	1.52 fold	0.47 fold	0.14 fold	1.35 fold	0.27 fold
Campath G236W (antibody)	0.7 fold	2.13 fold	0.29 fold	0.78 fold	1.52 fold	0.29 fold

Substance	Fold WT (human FcγRIIb (human))	Fold WT [1]	Fold WT (human FcγRIIc (human))	Fold WT (human FcγRI (human))	Fold WT (human FcRn (human))	Fold WT [2]
Campath K222E (antibody)	1.04 fold	1.26 fold	1.22 fold	1.77 fold	0.64 fold	1.51 fold
Campath K222Y (antibody)	0.5 fold	0.48 fold	0.34 fold	0.77 fold	0.66 fold	0.34 fold
Campath L234A (antibody)	0.85 fold	0.8 fold	0.62 fold	0.44 fold	0.58 fold	0.35 fold
Campath L234G (antibody)	3.62 fold	3.26 fold	3.48 fold	0.7 fold	2.54 fold	2.17 fold
Campath L234K (antibody)	1.42 fold	0.65 fold	1.09 fold	0.43 fold	0.62 fold	0.53 fold
Campath L234M (antibody)	0.9 fold	0.89 fold	0.65 fold	0.64 fold	0.55 fold	0.49 fold
Campath L234R (antibody)	1.49 fold	0.87 fold	1.52 fold	0.38 fold	1.19 fold	0.73 fold
Campath L235A (antibody)	0.84 fold	0.62 fold	0.78 fold	0.34 fold	0.97 fold	0.41 fold
Campath L235E (antibody)	0.83 fold	0.63 fold	0.8 fold	0.34 fold	0.78 fold	1.06 fold
Campath L235K (antibody)	1.28 fold	0.56 fold	1.34 fold	0.42 fold	0.96 fold	0.63 fold
Campath L235M (antibody)	0.89 fold	0.79 fold	0.64 fold	0.38 fold	0.69 fold	0.46 fold
Campath L235P (antibody)	1.16 fold	1.16 fold	0.89 fold	0.13 fold	0.86 fold	0.78 fold
Campath L235R (antibody)	1.93 fold	0.71 fold	1.15 fold	0.35 fold	0.53 fold	0.62 fold
Campath L235W (antibody)	0.77 fold	0.9 fold	0.5 fold	0.11 fold	0.46 fold	0.32 fold
Campath P228G (antibody)	0.96 fold	2.6 fold	0.54 fold	1 fold	1.77 fold	0.98 fold
Campath P228K (antibody)	1.14 fold	1.31 fold	1.13 fold	1.91 fold	1.55 fold	1.28 fold
Campath P228Y (antibody)	1.59 fold	1.68 fold	1.61 fold	1.15 fold	1.45 fold	0.75 fold
Campath P230E (antibody)	2.34 fold	1.25 fold	1.47 fold	2.07 fold	1.01 fold	
Campath P230G (antibody)	1.13 fold	0.99 fold	0.75 fold	1.04 fold	1.16 fold	0.48 fold
Campath P230Y (antibody)	0.85 fold	0.4 fold	1.22 fold	0.44 fold	0.65 fold	0.56 fold
Campath P232E (antibody)	1.59 fold	0.8 fold	0.99 fold	2.97 fold	0.76 fold	1.51 fold
Campath P232K (antibody)	0.85 fold	0.87 fold	0.61 fold	0.7 fold	1.56 fold	0.77 fold
Campath P232Y (antibody)	1.49 fold	1.51 fold	0.96 fold	1.91 fold	0.68 fold	0.99 fold
